{"source": "patent US20220218850A1", "about": "“Methods and Compositions for Two-Stage Microbubble Delivery of Active Agents” (Virginia Commonwealth University, priority 2021, published 2022)", "tested_on": "DU-145 tumor xenografts", "test": "UTMD delivery of Alexa Fluor-His-MDA-7/MB complex to DU-145 xenografts", "assay_type": "in vivo, mice", "settings": "tail vein, ultrasound at left flank tumor (UTMD)", "procedure": "DU-145 human prostate cancer cells were established as xenografts in the left flank of nude mice. Alexa Fluor labeled His-MDA-7/MBs complex were injected through the tail vein of nude mice, and sonoporated in the xenograft (DU-145) tumor implanted in the left flank with a portable ultrasound (SonoSite Micro-Maxx US platform) equipped with an L25 linear array transducer set at 0.7 Mechanical Index, 1.8 MPa for 10 min (UTMD approach). The fluorescent image was captured using Xenogen IVIS spectrum. […] Lighter color indicates higher fluorescent intensity.\nIn addition to delivering therapeutic viruses systemically, we also tested the possibility of using MBs and a UTMD approach to deliver therapeutic proteins in vivo. His tagged MDA-7/IL-24 (His-MDA-7) was purified by using Ni-NTA column chromatography. 1 mg/ml of His-MDA-7 solution was mixed with Alexa Fluor 488 containing 0.1 M Sodium bicarbonate, followed by removal of unincorporated dye by centrifugation using centricon (3 kD cut off MW). Confirmation of labeling of His-MDA-7 (Alexa Fluor-His-MDA-7) was obtained spectroflurometrically based on emission spectra changes. The Alexa Fluor-His-MDA-7 was incubated overnight with MBs and localization of the labeled protein complex in the MBs was monitored by green fluorescence and found to be associated with the lipid shell of the MB (FIG. 3A). […]", "data": [{"molecule": "Alexa Fluor-His-MDA-7: His tagged MDA-7/IL-24 protein labeled with Alexa Fluor 488, complexed with microbubbles (protein, UniProt Q13007 52-206, looked up, His tag, Alexa Fluor 488, microbubble complex, His tagged MDA-7/IL-24 protein labeled with Alexa Fluor 488, complexed with microbubbles) Interleukin-24: QEFHFGPCQVKGVVPQKLWEAFWAVKDTMQAQDNITSARLLQQEVLQNVSDAESCYLVHTLLEFYLKTVFKNYHNRTVEVRTLKSFSTLANNFVLIVSQLQPSQENEMFSIRDSAHRRFLLFRRAFKQLDVEAALTKALGEVDILLTWMQKFYKL", "values": [{"measurement": "localisation of labeled protein (fluorescent image)", "value": "mostly localized in the left flank where ultrasound was applied"}, {"measurement": "localisation of labeled protein (fluorescent image)", "setting": "listed as Alexa Fluor-MDA-7", "value": "located predominantly in the tumor in the left flank of mice"}]}]}
